From patent publication US20240279331A1 (University of California, published 2024)

T1: NCR3 extracellular domain fused to a generic transmembrane domain, on tetracycline-inducible FlpIn cells (human, UniProt O14931 19-135)
T1 construct: extracellular domain; HEK293 FlpIn cells, expression on tetracycline addition; also called NCR3 over expression cell line; not shown: transmembrane domain of platelet-derived growth factor (so in the source) with a HA tag
T1 sequence (looked up): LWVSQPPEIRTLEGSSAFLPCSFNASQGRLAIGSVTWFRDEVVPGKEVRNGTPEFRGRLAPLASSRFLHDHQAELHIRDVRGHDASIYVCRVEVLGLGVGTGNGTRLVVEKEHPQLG

T2: NCR3 as expressed on NK cells (human, UniProt O14931 19-201)
T2 construct: whole, on cells; Primary human peripheral blood NK cells; NK92MI cells in the bispecific cytotoxicity assay; also called peripheral blood NK cells; NCR3+ NK92MI cells
T2 sequence (looked up): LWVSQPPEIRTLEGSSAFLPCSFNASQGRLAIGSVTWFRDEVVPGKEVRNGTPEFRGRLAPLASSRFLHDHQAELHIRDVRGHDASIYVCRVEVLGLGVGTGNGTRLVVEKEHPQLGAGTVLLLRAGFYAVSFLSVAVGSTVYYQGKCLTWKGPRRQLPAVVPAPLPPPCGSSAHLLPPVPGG

T3: NCR3 extracellular domain TEV-cleavable Fc-fusion, biotinylated (human, UniProt O14931 19-135, biotinylated (site not stated))
T3 construct: extracellular domain; Antigen of the phage selections and Fab-phage ELISAs; not shown: TEV cleavage site and Fc domain
T3 sequence (looked up): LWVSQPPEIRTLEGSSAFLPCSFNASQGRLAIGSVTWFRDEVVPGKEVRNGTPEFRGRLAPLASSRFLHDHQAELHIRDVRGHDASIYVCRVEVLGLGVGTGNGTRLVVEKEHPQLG

T4: TNFSF4 extracellular domain fused to a generic transmembrane domain, on tetracycline-inducible FlpIn cells (UniProt P23510 51-183)
T4 construct: extracellular domain; also called OX40L; not shown: transmembrane domain of platelet-derived growth factor (so in the source) with a HA tag
T4 sequence (looked up): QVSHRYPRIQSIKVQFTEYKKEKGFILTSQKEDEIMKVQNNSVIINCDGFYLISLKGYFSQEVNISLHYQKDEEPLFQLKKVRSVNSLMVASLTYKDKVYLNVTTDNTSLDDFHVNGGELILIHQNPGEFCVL

T5: CD244 extracellular domain fused to a generic transmembrane domain, on tetracycline-inducible FlpIn cells (UniProt Q9BZW8 22-229)
T5 construct: extracellular domain; not shown: transmembrane domain of platelet-derived growth factor (so in the source) with a HA tag
T5 sequence (looked up): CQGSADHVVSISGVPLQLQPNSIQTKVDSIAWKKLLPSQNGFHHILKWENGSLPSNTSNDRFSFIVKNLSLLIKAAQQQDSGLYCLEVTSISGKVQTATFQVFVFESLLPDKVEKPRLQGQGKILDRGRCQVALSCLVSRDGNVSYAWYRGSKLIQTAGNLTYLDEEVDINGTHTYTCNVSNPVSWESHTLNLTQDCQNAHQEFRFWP


What was measured:
[1] = target: T1, NCR3 extracellular domain fused to a …; experiment: flow cytometry, Fab on tetracycline-inducible cells over-expressing the ECD (FIG. S5)
Protocol: (§1) To investigate the specificity of both activating and non-functional antibodies for their receptor targets, we developed a tetracycline-inducible cell line for each protein target—CD16, NCR1, NCR3, CD244, TNFRSF9, and TNFSF4. The ECDs of these proteins were fused to a generic transmembrane domain and were expressed upon tetracycline addition.
(§2) Titrations were performed on primary human NK cells or tetracycline induced overexpression cell lines as indicated. When tetracycline induced overexpression cell lines were used, cells were dosed with 10 μg/mL tetracycline for 2 days prior to staining. The starting concentration of each Fab or bispecific antibody was 1 μM, and serial 1:5 dilutions were performed. Antibodies were incubated with cells for 1 hr at 4° C., washed 2 times in 3% BSA in PBS pH 7.4, and stained for 30 min with an Alexafluor-647 conjugated goat anti-human IgG F(ab′)2 fragment (Jackson ImmunoResearch Laboratories) at a 1:50 dilution. After an additional 3 washes, cells were fixed and fluorescence was quantified using a CytoFLEX (Beckman Coulter). All flow cytometry data were analyzed using FlowJo software.

[2] = target: T2, NCR3 as expressed on NK cells; experiment: flow cytometry, Fab titration on peripheral blood NK cells (FIG. S6)
Protocol: (§3) To evaluate the affinity of the selected antibodies for NK cells, we titrated the nine Fab clones on peripheral blood NK cells.
as §2

[3] = target: T3, NCR3 extracellular domain TEV-cleavable …; experiment: Fab-phage selection and Fab-phage ELISA on biotinylated ECD Fc-fusion (antigen column of Table S1)
Protocol: (§4) To generate antibodies against these antigens, we expressed the extracellular domains (ECDs) of these proteins as TEV-cleavable Fc-fusions and performed Fab-phage display selections to enrich for high affinity antibody binders (FIG. S1), as previously described [Hornsby, M. et al., Mol Cell Proteomics. 14(10), 2833-2847 (2015)]. After each selection, Fab-phage ELISAs were performed to determine the relative affinity and selectivity of these binders for their antigen targets (FIG. S2).
(§5) TEV-cleavable Fc-fusion proteins were expressed and biotinylated in Expi293F cells using the standard expression protocol. Media were harvested after 4 days of expression and protein was purified by protein A affinity chromatography. Phage selections were performed according to previously established protocols1 with the Fab-phage Library E2. Non-specific binders were depleted from the library by incubating the phage pool with Fc-domain immobilized on streptavidin beads. Fab phage were selected using biotinylated Fc-fusions that were captured on streptavidin-coated magnetic beads, and were released through TEV elution. Each selection consists of four rounds. With each round, decreasing amounts of Fc-fusions (1 μM, 100 nM, 10 nM, and […]) were used. ELISAs were performed for 96 individual Fab-phage clones from the third or fourth rounds of selection to evaluate for affinity and selectivity.
(§6) ELISAs were performed as previously described1. In brief, Maxisorp plates were coated with 10 μg/mL of Neutravidin overnight at 4° C. Biotinylated target antigen (20 nM) was captured on the Neutravidin coated plates for 30 min, and then exposed to a 1:5 dilution of phage supernatants for 30 min. Bound phage were detected via a horseradish-peroxidase-conjugated anti-phage monoclonal antibody (GE Lifesciences).

[4] = target: T6, NCR1 extracellular domain fused to a generic transmembrane domain, on tetracycline-inducible FlpIn cells (human, UniProt O76036 22-258); experiment: flow cytometry, Fab on tetracycline-inducible cell lines over-expressing each ECD (FIG. S5)
T6 construct: extracellular domain; HEK293 FlpIn cells, expression on tetracycline addition; also called NCR1 over expression cell line; not shown: transmembrane domain of platelet-derived growth factor (so in the source) with a HA tag
T6 sequence (O76036 22-258): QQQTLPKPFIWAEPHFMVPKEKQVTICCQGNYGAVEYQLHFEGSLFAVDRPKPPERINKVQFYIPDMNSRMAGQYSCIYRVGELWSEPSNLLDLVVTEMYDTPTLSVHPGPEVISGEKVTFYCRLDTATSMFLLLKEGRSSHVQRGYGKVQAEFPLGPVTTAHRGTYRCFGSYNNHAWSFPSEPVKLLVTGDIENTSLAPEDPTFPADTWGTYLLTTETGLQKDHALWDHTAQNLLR
Protocol: as §1, §2

[5] = target: T4, TNFSF4 extracellular domain fused to a …; experiment: as above
Protocol: as §1, §2

[6] = target: T7, TNFRSF9 extracellular domain fused to a generic transmembrane domain, on tetracycline-inducible FlpIn cells (UniProt Q07011 24-186); experiment: as above
T7 construct: extracellular domain; also called 4-1BB; not shown: transmembrane domain of platelet-derived growth factor (so in the source) with a HA tag
Protocol: as §1, §2

[7] = target: T8, CD16 extracellular domain fused to a generic transmembrane domain, on tetracycline-inducible FlpIn cells (human, UniProt P08637 17-208); experiment: as above
T8 construct: extracellular domain; HEK293 FlpIn cells, expression on tetracycline addition; also called CD16 over expression cell line; CD16A; not shown: transmembrane domain of platelet-derived growth factor (so in the source) with a HA tag
T8 sequence (P08637 17-208): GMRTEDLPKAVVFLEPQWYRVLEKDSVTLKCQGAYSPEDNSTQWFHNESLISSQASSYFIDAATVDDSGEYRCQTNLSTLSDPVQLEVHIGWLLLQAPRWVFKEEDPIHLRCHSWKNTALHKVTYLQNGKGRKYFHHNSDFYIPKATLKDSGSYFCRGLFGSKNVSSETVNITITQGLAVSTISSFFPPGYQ
Protocol: as §1, §2

[8] = target: T5, CD244 extracellular domain fused to a …; experiment: as above
Protocol: as §1, §2

[9] = target: T8, CD16 extracellular domain fused to a …; experiment: flow cytometry, Fab on tetracycline-inducible cells over-expressing the ECD (FIG. S5)
Protocol: as §1, §2

[10] = target: T9, CD16 as expressed on NK cells (human, UniProt P08637 17-254); experiment: flow cytometry, Fab titration on peripheral blood NK cells (FIG. S6)
T9 construct: whole, on cells; Primary human peripheral blood NK cells; PBMCs in the bispecific cytotoxicity assay; also called peripheral blood NK cells; PBMCs
T9 sequence (P08637 17-254): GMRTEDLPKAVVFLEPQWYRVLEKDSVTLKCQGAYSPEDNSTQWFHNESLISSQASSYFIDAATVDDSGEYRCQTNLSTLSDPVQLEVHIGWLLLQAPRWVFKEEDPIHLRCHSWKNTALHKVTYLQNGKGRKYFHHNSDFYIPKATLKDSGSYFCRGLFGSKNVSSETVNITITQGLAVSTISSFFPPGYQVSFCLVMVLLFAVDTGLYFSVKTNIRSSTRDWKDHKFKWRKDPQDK
Protocol: as §3, §2

[11] = target: T10, CD16 extracellular domain TEV-cleavable Fc-fusion, biotinylated (human, UniProt P08637 17-208, biotinylated (site not stated)); experiment: Fab-phage selection and Fab-phage ELISA on biotinylated ECD Fc-fusion (antigen column of Table S1)
T10 construct: extracellular domain; Antigen of the phage selections and Fab-phage ELISAs; also called CD16A; not shown: TEV cleavage site and Fc domain
T10 sequence (P08637 17-208): as the sequence (P08637 17-208) above
Protocol: as §4, §5, §6

[12] = target: T1, NCR3 extracellular domain fused to a …; experiment: flow cytometry, Fab on tetracycline-inducible cell lines over-expressing each ECD (FIG. S5)
Protocol: as §1, §2

binding result [1] | binding result [2] | binding result [3] | binding result [4] | binding result [5] | binding result [6] | binding result [7] | binding result [8] | binding result [9] | binding result [10] | binding result [11] | binding result [12] | Binder
binds | binds | binds | no binding | no binding | no binding | no binding | no binding |  |  |  |  | NCR3.12 Fab (Fab, also called anti-NCR3 Fab #72) heavy: EVQLVESGGGLVQPGGSLRLSCAASGFNISSSSIHWVRQAPGKGLEWVAYISSSSGYTSYADSVKGRFTISADTSKNTAYLQMNSLRAEDTAVYYCARYSYFYGGYFYWTSWGAFDYWGQGTLVTVSSASTKGPSVFPLAPSSKSTSGGTAALGCLVKDYFPEPVTVSWNSGALTSGVHTFPAVLQSSGLYSLSSVVTVPSSSLGTQTYICNVNHKPSNTKVDKKVEPKSCDKTHT light: DIQMTQSPSSLSASVGDRVTITCRASQSVSSAVAWYQQKPGKAPKLLIYSASSLYSGVPSRFSGSRSGTDFTLTISSLQPEDFATYYCQQSSYWPFTFGQGTKVEIKRTVAAPSVFIFPPSDSQLKSGTASVVCLLNNFYPREAKVQWKVDNALQSGNSQESVTEQDSKDSTYSLSSTLTLSKADYEKHKVYACEVTHQGLSSPVTKSFNRGEC
 |  |  | no binding | no binding | no binding |  | no binding | binds | binds | binds | no binding | CD16.03 Fab (Fab, also called anti-CD16 Fab #3) heavy: EVQLVESGGGLVQPGGSLRLSCAASGFNFSSYSIHWVRQAPGKGLEWVASIYSSSGSTSYADSVKGRFTISADTSKNTAYLQMNSLRAEDTAVYYCARWSYDQYYDQHGYYFYYWGFDYWGQGTLVTVSSASTKGPSVFPLAPSSKSTSGGTAALGCLVKDYFPEPVTVSWNSGALTSGVHTFPAVLQSSGLYSLSSVVTVPSSSLGTQTYICNVNHKPSNTKVDKKVEPKSCDKTHT light: DIQMTQSPSSLSASVGDRVTITCRASQSVSSAVAWYQQKPGKAPKLLIYSASSLYSGVPSRFSGSRSGTDFTLTISSLQPEDFATYYCQQSSAELITFGQGTKVEIKRTVAAPSVFIFPPSDSQLKSGTASVVCLLNNFYPREAKVQWKVDNALQSGNSQESVTEQDSKDSTYSLSSTLTLSKADYEKHKVYACEVTHQGLSSPVTKSFNRGEC
binds | binds | binds | no binding | no binding | no binding | no binding | no binding |  |  |  |  | NCR3.19 Fab (Fab, also called anti-NCR3 Fab #79) heavy: EVQLVESGGGLVQPGGSLRLSCAASGFNVYSYSIHWVRQAPGKGLEWVASIYSYYGSTSYADSVKGRFTISADTSKNTAYLQMNSLRAEDTAVYYCARWYQYYYIGTAAMDYWGQGTLVTVSSASTKGPSVFPLAPSSKSTSGGTAALGCLVKDYFPEPVTVSWNSGALTSGVHTFPAVLQSSGLYSLSSVVTVPSSSLGTQTYICNVNHKPSNTKVDKKVEPKSCDKTHT light: DIQMTQSPSSLSASVGDRVTITCRASQSVSSAVAWYQQKPGKAPKLLIYSASSLYSGVPSRFSGSRSGTDFTLTISSLQPEDFATYYCQQQWYPLITFGQGTKVEIKRTVAAPSVFIFPPSDSQLKSGTASVVCLLNNFYPREAKVQWKVDNALQSGNSQESVTEQDSKDSTYSLSSTLTLSKADYEKHKVYACEVTHQGLSSPVTKSFNRGEC
